According to PMC7762955, “Antibiotic binding releases autoinhibition of the TipA multidrug-resistance transcriptional regulator” (The Journal of Biological Chemistry, 2020):

Tests used:
[1] = target: SkgACC (S16C/E133C), double-cysteine mutant of SkgA (Caulobacter crescentus); assay: cross-linking; disulfide bonds between introduced cysteines; reduced and nonreduced 15% SDS-PAGE, Coomassie Brilliant Blue staining
[2] = target: SkgA (stationary-phase regulation of KatG protein), Caulobacter crescentus TipA-class transcriptional regulator, full length (Caulobacter crescentus); assay: not stated; SkgA in solution (Fig. S2A); method not given
[3] = target: the molecule itself; assay: SEC; analytical SEC, Superdex 200 10/300, 40 μM protein, 20 mM Tris-HCl pH 7.5, 150 mM NaCl, 1 mM DTT
[4] = tested on: tipA promoter DNA (ptipA); assay: Fluorescence polarization assay, tipA promoter DNA binding; design: species or system Streptomyces lividans; settings: apo, FPA; for Kd: read-out: Kd, affinity with the tipA promoter DNA (ptipA)
Experimental: (§1) Fluorescence polarization assays (FPAs) were performed to test the structure-based hypothesis that α6–α7 plays a key role in communication between the ligand-binding and DNA-binding regions. […] Parallel experiments were also performed for Mta and SkgA proteins, and consistent results were obtained.
(§2) FPAs were performed in buffer consisting of 20 mM Tris-HCl, pH 7.5, 200 mM NaCl and 5% (v/v) glycerol at 298 K using a SpectraMax M5 microplate reader system (Molecular Devices, San Jose, CA, USA). The wavelengths of fluorescence excitation and emission were 486 and 525 nm, respectively. 26-bp dsDNA from the −10 and −35 regions of the tipA, mta, and skgA promoters with the sequences […], […], and […] were synthesized with a 5′-carboxyfluorescein label for the respective assays with TipAL, Mta, and SkgA proteins. For assays with thiostrepton supplementation, proteins were incubated with thiostrepton (Sigma) at a 1:1 ratio for 15 min prior to mixing with DNA in wells. Each well of a 384-well plate contained 10 nM of a fluorescently labeled DNA probe and different amounts of proteins with a final volume of 80 μl. DNA-free controls were included, and three replicates were performed for each reaction for each assay. The fluorescence polarization ΔP (in mP units) was calculated and fitted according to a one-site specific binding model using GraphPad Prism7 (GraphPad Software) with the function ΔP = ΔPmax[protein]/(Kd + [protein]).

[5] = target: the molecule itself; assay: cross-linking; disulfide bonds between introduced cysteines; reduced and nonreduced 15% SDS-PAGE, Coomassie Brilliant Blue staining
mta promoter DNA = assay: Fluorescence polarization assay, mta promoter DNA binding; design: species or system Bacillus subtilis; settings: apo, FPA; for Kd: read-out: Kd, affinity with mta promoter DNA
Experimental: as §1, §2

[6] = no antibiotic, 10 nM 5'-carboxyfluorescein-labeled 26-bp dsDNA, 20 mM Tris-HCl pH 7.5, 200 mM NaCl, 5% glycerol, 298 K, ex 486/em 525 nm, one-site binding fit, three replicates, n.b. = printed in picture, not defined
[7] = 10 nM 5'-carboxyfluorescein-labeled 26-bp dsDNA, 20 mM Tris-HCl pH 7.5, 200 mM NaCl, 5% glycerol, 298 K, ex 486/em 525 nm, one-site binding fit, three replicates, n.b. = printed in picture, not defined

SkgACC (S16C/E133C), double-cysteine mutant of SkgA (natural protein)
stoichiometry N [1]: 2

SkgA (stationary-phase regulation of KatG protein), Caulobacter crescentus TipA-class transcriptional regulator, full length (natural protein)
stoichiometry N [2]: 2

B1: TipAH7 (TipAL residues 1-140), TipAN plus the α6-α7 region (domain or fragment, Streptomyces lividans, UniProt P0A4T9-1 1-140, looked up)
chain: MSYSVGQVAGFAGVTVRTLHHYDDIGLLVPSERSHAGHRRYSDADLDRLQQILFYRELGFPLDEVAALLDDPAADPRAHLRRQHELLSARIGKLQKMAAAVEQAMEARSMGINLTPEEKFEVFGDFDPDQYEEEVRERWG
notes: source: E. coli BL21 (DE3), purified (nickel-nitrilotriacetic acid, Superdex 200 SEC)
stoichiometry N [3]: 2

B2: TipAH7: truncated protein consisting of TipAN and the α6–α7 region, TipAL residues 1–140 (protein)
chain: MSYSVGQVAGFAGVTVRTLHHYDDIGLLVPSERSHAGHRRYSDADLDRLQQILFYRELGFPLDEVAALLDDPAADPRAHLRRQHELLSARIGKLQKMAAAVEQAMEARSMGINLTPEEKFEVFGDFDPDQYEEEVRERWG
modifications: left off: His6, end not stated, state not stated
lower DNA-binding affinity than N-terminal truncation ([4]; TipAH7 vs TipAN, range printed jointly for the three H7 truncations): 4–7 fold
Kd [4, 6]: 318 ± 58.5 nM

B3: MtaCC (S15C/E138C), double-cysteine mutant of Mta (natural protein, Bacillus subtilis, UniProt P71039 1-257, looked up)
chain: MKYQVKQVAEISGVCIRTLHHYDNIELLNPSALTDAGYRLYSDADLERLQQILFFKEIGFRLDEIKEMLDHPNFDRKAALQSQKEILMKKKQRMDEMIQTIDRTLLSVDGGETMNKRDLFAGLSMKDIEEHQQTYADCVRKLYGKEIAEETEKRTSAYSADDWRTIMAEFDSIYRRIAARMKHGPDDAEIQAAVGAFRDHICQYHYDCTLDIFRGLGEVYITDERFTDSINQYGEGLAAFLREAIIIYCDHQENPRP
modifications: disulfide bonds between the introduced cysteines of two protomers (nonreduced sample)
notes: as for B1
stoichiometry N [5]: 2

B4: Mta: B. subtilis multidrug transporter activation protein, TipA-class (protein)
chain: MKYQVKQVAEISGVSIRTLHHYDNIELLNPSALTDAGYRLYSDADLERLQQILFFKEIGFRLDEIKEMLDHPNFDRKAALQSQKEILMKKKQRMDEMIQTIDRTLLSVDGGETMNKRDLFAGLSMKDIEEHQQTYADEVRKLYGKEIAEETEKRTSAYSADDWRTIMAEFDSIYRRIAARMKHGPDDAEIQAAVGAFRDHICQYHYDCTLDIFRGLGEVYITDERFTDSINQYGEGLAAFLREAIIIYCDHQENPRP
modifications: left off: His6, end not stated, state not stated
Kd (mta promoter DNA; [7]): 496 ± 70.3 nM

B5: MtaCC (protein)
chain: MKYQVKQVAEISGVCIRTLHHYDNIELLNPSALTDAGYRLYSDADLERLQQILFFKEIGFRLDEIKEMLDHPNFDRKAALQSQKEILMKKKQRMDEMIQTIDRTLLSVDGGETMNKRDLFAGLSMKDIEEHQQTYADCVRKLYGKEIAEETEKRTSAYSADDWRTIMAEFDSIYRRIAARMKHGPDDAEIQAAVGAFRDHICQYHYDCTLDIFRGLGEVYITDERFTDSINQYGEGLAAFLREAIIIYCDHQENPRP
modifications: disulfide bonds between the introduced cysteines of two protomers (nonreduced sample); left off: His6, end not stated, state not stated
specific binding with mta promoter DNA (mta promoter DNA; double-cysteine mutant): did not show any specific binding
Kd, affinity with mta promoter DNA (mta promoter DNA; [7]): n.b.

B6: TipAN (TipAL residues 1-109), N terminus of TipAL (domain or fragment, Streptomyces lividans, UniProt P0A4T9-1 1-109, looked up)
chain: MSYSVGQVAGFAGVTVRTLHHYDDIGLLVPSERSHAGHRRYSDADLDRLQQILFYRELGFPLDEVAALLDDPAADPRAHLRRQHELLSARIGKLQKMAAAVEQAMEARS
notes: its limits may differ from this construct; source: E. coli BL21 (DE3), purified (nickel-nitrilotriacetic acid, Superdex 200 SEC)
stoichiometry N [3]: 2

B7: TipAL, full-length thiostrepton-induced protein A of Streptomyces lividans (natural protein, UniProt P0A4T9-1 1-253, looked up)
chain: MSYSVGQVAGFAGVTVRTLHHYDDIGLLVPSERSHAGHRRYSDADLDRLQQILFYRELGFPLDEVAALLDDPAADPRAHLRRQHELLSARIGKLQKMAAAVEQAMEARSMGINLTPEEKFEVFGDFDPDQYEEEVRERWGNTDAYRQSKEKTASYTKEDWQRIQDEADELTRRFVALMDAGEPADSEGAMDAAEDHRQGIARNHYDCGYEMHTCLGEMYVSDERFTRNIDAAKPGLAAYMRDAILANAVRHTP
notes: also called WT TipAL; full-length TipAL; source: E. coli BL21 (DE3), purified (nickel-nitrilotriacetic acid, Superdex 200 SEC)
stoichiometry N [3]: 2

B8: TipAL: full-length S. lividans TipA transcriptional regulatory protein (protein)
chain: MSYSVGQVAGFAGVTVRTLHHYDDIGLLVPSERSHAGHRRYSDADLDRLQQILFYRELGFPLDEVAALLDDPAADPRAHLRRQHELLSARIGKLQKMAAAVEQAMEARSMGINLTPEEKFEVFGDFDPDQYEEEVRERWGNTDAYRQSKEKTASYTKEDWQRIQDEADELTRRFVALMDAGEPADSEGAMDAAEDHRQGIARNHYDCGYEMHTCLGEMYVSDERFTRNIDAAKPGLAAYMRDAILANAVRHTP
modifications: left off: His6, end not stated, state not stated
notes: full-length S. lividans TipA transcriptional regulatory protein
Kd [4, 6]: 380 ± 56 nM

B9: TipALCC (T15C/E134C), double-cysteine mutant of TipAL (natural protein, Streptomyces lividans, UniProt P0A4T9-1 1-253, looked up)
chain: MSYSVGQVAGFAGVCVRTLHHYDDIGLLVPSERSHAGHRRYSDADLDRLQQILFYRELGFPLDEVAALLDDPAADPRAHLRRQHELLSARIGKLQKMAAAVEQAMEARSMGINLTPEEKFEVFGDFDPDQYEECVRERWGNTDAYRQSKEKTASYTKEDWQRIQDEADELTRRFVALMDAGEPADSEGAMDAAEDHRQGIARNHYDCGYEMHTCLGEMYVSDERFTRNIDAAKPGLAAYMRDAILANAVRHTP
modifications: disulfide bonds between the introduced cysteines of two protomers (nonreduced sample)
notes: as for B1
stoichiometry N [5]: 2

B10: TipALCC (protein)
chain: MSYSVGQVAGFAGVCVRTLHHYDDIGLLVPSERSHAGHRRYSDADLDRLQQILFYRELGFPLDEVAALLDDPAADPRAHLRRQHELLSARIGKLQKMAAAVEQAMEARSMGINLTPEEKFEVFGDFDPDQYEECVRERWGNTDAYRQSKEKTASYTKEDWQRIQDEADELTRRFVALMDAGEPADSEGAMDAAEDHRQGIARNHYDCGYEMHTCLGEMYVSDERFTRNIDAAKPGLAAYMRDAILANAVRHTP
modifications: disulfide bonds between the introduced cysteines of two protomers (nonreduced sample); left off: His6, end not stated, state not stated
ptipA DNA-binding ability ([4]; double-cysteine mutant): complete loss of DNA-binding ability
Kd, affinity with the tipA promoter DNA (ptipA) [4, 6]: n.b.

B11: MtaH7: truncated protein containing the α6–α7 region, Mta residues 1–144 (protein, UniProt P71039 1-144, looked up, fragment)
chain: MKYQVKQVAEISGVSIRTLHHYDNIELLNPSALTDAGYRLYSDADLERLQQILFFKEIGFRLDEIKEMLDHPNFDRKAALQSQKEILMKKKQRMDEMIQTIDRTLLSVDGGETMNKRDLFAGLSMKDIEEHQQTYADEVRKLYG
lower DNA-binding affinity than N-terminal truncation (mta promoter DNA; MtaH7 vs MtaN, range printed jointly for the three H7 truncations): 4–7 fold
Kd (mta promoter DNA; [7]): 467 ± 67.4 nM
